In assay [1] the target is photosystem I (PSI) monomer (Synechocystis sp. PCC 6803) (UniProt P29254).
Assay [2] has the same target. As to the kind of experiment: cryo-EM structure; native PSI3-IsiA18 supercomplex co-purified from Synechocystis sp. PCC 6803 membranes in DDM; 30 mM Tricine-NaOH pH 8, 75 mM NaCl, 0.02% DDM; 1.5 mg chlorophyll/ml; vitrified on holey carbon grids; C3 symmetry expansion and multibody refinement.

iron-stressed induced protein A (IsiA), sequence (Q55274 whole entry): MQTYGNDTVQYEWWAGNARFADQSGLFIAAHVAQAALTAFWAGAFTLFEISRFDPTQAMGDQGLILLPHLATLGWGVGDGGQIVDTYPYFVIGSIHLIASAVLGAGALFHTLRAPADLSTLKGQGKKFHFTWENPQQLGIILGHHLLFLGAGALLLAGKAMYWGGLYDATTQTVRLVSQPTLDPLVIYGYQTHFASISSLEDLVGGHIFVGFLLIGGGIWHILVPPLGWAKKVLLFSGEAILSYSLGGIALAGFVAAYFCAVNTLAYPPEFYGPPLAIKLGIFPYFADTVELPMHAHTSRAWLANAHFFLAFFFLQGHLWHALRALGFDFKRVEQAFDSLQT
photosystem I (PSI) monomer (Synechocystis sp. PCC 6803), sequence (P29254 whole entry, looked up): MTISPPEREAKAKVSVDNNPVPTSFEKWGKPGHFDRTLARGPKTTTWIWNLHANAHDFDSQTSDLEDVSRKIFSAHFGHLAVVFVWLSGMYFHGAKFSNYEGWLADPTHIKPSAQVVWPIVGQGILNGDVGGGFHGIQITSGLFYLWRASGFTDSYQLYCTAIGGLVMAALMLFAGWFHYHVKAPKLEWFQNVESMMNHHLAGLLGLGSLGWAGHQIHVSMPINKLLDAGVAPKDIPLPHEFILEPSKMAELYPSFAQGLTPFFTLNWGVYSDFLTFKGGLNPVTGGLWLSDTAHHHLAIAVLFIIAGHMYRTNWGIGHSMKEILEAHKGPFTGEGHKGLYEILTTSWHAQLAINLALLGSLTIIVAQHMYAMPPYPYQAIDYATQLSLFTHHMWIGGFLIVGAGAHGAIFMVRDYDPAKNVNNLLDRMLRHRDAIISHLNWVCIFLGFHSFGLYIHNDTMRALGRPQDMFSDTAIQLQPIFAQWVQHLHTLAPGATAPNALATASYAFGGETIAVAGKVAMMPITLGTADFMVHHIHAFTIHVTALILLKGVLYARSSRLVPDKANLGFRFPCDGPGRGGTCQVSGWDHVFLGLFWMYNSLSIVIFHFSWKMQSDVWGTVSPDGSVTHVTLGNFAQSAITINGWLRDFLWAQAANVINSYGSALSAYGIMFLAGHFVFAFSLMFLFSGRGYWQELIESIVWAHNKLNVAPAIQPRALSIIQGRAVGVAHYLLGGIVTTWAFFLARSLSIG

Turning to “iron-stressed induced protein A (IsiA) (from UniProt Q55274 1-342) (natural protein)”, in assay [1], the single-molecule fluorescence lifetime: share of complexes with bi-exponential decay at all intensity levels (partially coupled, population II) came to 4%; the single-molecule fluorescence lifetime: share of complexes with fast mono-exponential decay at all intensity levels (continuously coupled) is 60%; the single-molecule fluorescence lifetime: share of complexes with mono-exponential levels interleaved with bi-exponential levels (transiently coupled, population I) stood at 36%.
The term stoichiometry N denotes a count of units in the complex or per binding partner. In assay [2], “photosystem I (PSI) monomer (from UniProt P29254 1-751; P29255 1-731; P29256 24-165; Q55329 1-40; P72712 1-86) (complex)” came in with a stoichiometry N of 3.

The values are drawn from paper PMC10397321.
